Patent US20200057058A1 (MIT, published 2020)

What was measured:
[1] = target: monomeric streptavidin variant mSA2; assay: apparent Kd (Kd,app); fluorescent binding curve, labeled mSA2 in 50% blood serum, 4 h; quadratic fit
[2] = target: monomeric streptavidin variant mSA2; assay: fluorescent binding curves, labeled mSA2 in 50% urine or 50% blood serum, 4 h
[3] = target: T1, streptavidin (UniProt P22629 37-163, limits assumed); assay: fluorescent binding curve, labeled SA in 50% blood serum, 4 h; quadratic fit
T1 construct: It was used without a stated label in the sandwich assays; also called SA
T1 sequence (P22629 37-163 limits assumed): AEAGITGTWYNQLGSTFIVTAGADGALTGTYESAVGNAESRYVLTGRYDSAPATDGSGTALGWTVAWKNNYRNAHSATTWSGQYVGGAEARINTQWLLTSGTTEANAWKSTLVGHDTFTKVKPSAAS

[4] = target: monomeric streptavidin variant mSA2; assay: fluorescent binding curve, labeled mSA2 in 50% blood serum, 4 h; quadratic fit
[5] = target: monomeric streptavidin variant mSA2; assay: apparent Kd (Kd,app); fluorescent binding curve, labeled mSA2 in 50% urine, 4 h; quadratic fit
[6] = target: T1, streptavidin; assay: sandwich assay: SA in 50% blood serum, biotin-HRP/TMB detection
Procedure: (§1) Each well was submerged in 1 mL of 1% BSA in Milli-Q water, and the 12-well plate was incubated at 37° C. for 30 minutes. The wells were rinsed twice by adding 2 mL of Milli-Q water and gently shaking the well plate at 70 rpm for 5 minutes. 1 mL of streptavidin diluted in PBS, urine, or blood serum (prepared as described in the Fluorescent Assays section) containing 0.1% BSA was then added to each well, and the well plate was shaken at 70 rpm for 4 hours at room temperature. Wells were rinsed twice with 2 mL of Milli-Q water then twice with 2 mL of 0.1% BSA in Milli-Q water by shaking at 70 rpm for 5 minutes. After rinsing, wells were submerged in 1 mL of 200 ng/mL biotin-HRP in Milli-Q water containing 0.1% BSA, and the well plate was shaken at 70 rpm for 1 hour at room temperature. Wells were then rinsed with water and 0.1% BSA as described previously. 1 mL of solution from a Pierce TMB substrate kit (Thermo Fisher Scientific) was added to each well, and the well plate was shaken vigorously at 125 rpm for 15 minutes at room temperature. 1 mL of 2M H2SO4 was added to each well, and the absorbance at 450 nm was read using a Tecan Infinite M200 PRO plate reader.
(§2) The general procedure for this proof-of-concept experiment is diagrammed in FIG. 28. Films were first exposed to SA solutions and rinsed to remove unbound analyte. Taking advantage of the strong interaction between SA and biotin, thin films were then submerged in a solution of biotinylated horseradish peroxidase (biotin-HRP). Bound SA was detected colorimetrically through the HRP-mediated oxidation of 3,3′,5,5′-tetramethylbenzidine (TMB). Attempts to perform this assay using mSA2 as the analyte were unsuccessful, even when run on an rcSso7d.SA monolayer.

[7] = target: T1, streptavidin; assay: apparent Kd (Kd,app); fluorescent binding curve, labeled SA in 50% urine, 4 h; quadratic fit
[8] = target: monomeric streptavidin variant mSA2; assay: fluorescent binding curve, labeled mSA2 in 50% urine, 4 h; quadratic fit
[9] = target: T1, streptavidin; assay: sandwich assay: SA in 50% urine, biotin-HRP/TMB detection
Procedure: as §1, §2

[10] = target: monomeric streptavidin variant mSA2; assay: fluorescent binding assay, labeled mSA2 in 50% urine on thin film, 4 h exposure
Procedure: (§3) The binding function of rcSso7d.SA oligomer-PNIPAM thin films was measured using fluorescently-labeled monomeric streptavidin (mSA2) and fluorescently-labeled streptavidin (SA). Details for the expression, purification, and fluorescent labeling of mSA2 are provided below. Samples were prepared by serial dilution of SA or mSA2 in PBS (pH 7.4), human urine (diluted to 50% v/v in PBS, pH 7.4), or blood serum (obtained as the supernatant by centrifuging whole blood at 1500×g for 10 minutes, then diluted to 50% v/v in PBS, pH 7.4). 0.5 μL drops of solutions containing serially diluted fluorescent mSA2 and fluorescent SA samples in PBS (pH 7.4) were gently applied to the surface of each bioconjugate thin film. Films were incubated in a sealed chamber saturated with water vapor at room temperature to prevent to prevent drying of the applied fluorescent samples. […] Fluorescence microscopy images were acquired at 4× magnification using a Cy5 filter set and exposure time of 5000 ms on an Olympus IX-81 inverted fluorescence microscope with an AxioCam HRC CCD camera. Fluorescent intensity was calculated using ImageJ software⁶⁷ by determining the average fluorescent signal in a rectangular area of the fluorescent image free of defects and occupying no less than half of the full sample application area.
(§4) To evaluate how the apparent size-based diffusion properties translated to biosensing capabilities, binding curves were measured using SA and mSA2 solutions in buffer. Binding curves were fit with a quadratic model that is a function of three parameters: the average MFI per binding event a, the total concentration of binding sites [P]T, and the apparent dissociation constant K_{d,app} describing the binding equilibrium between analyte and binding sites within the thin film.

[11] = target: T1, streptavidin; assay: apparent Kd (Kd,app); fluorescent binding curve, labeled SA in 50% blood serum, 4 h; quadratic fit
[12] = target: T1, streptavidin; assay: sandwich assay, SA in 50% blood serum, detection with biotin-HRP and TMB
Procedure: as §1, §2

[13] = target: T1, streptavidin; assay: fluorescent binding assay, labeled SA in 50% blood serum on thin film, 4 h exposure
[14] = target: T1, streptavidin; assay: fluorescent binding curve, labeled SA in 50% urine, 4 h; quadratic fit
[15] = target: monomeric streptavidin variant mSA2; assay: fluorescent binding assay, labeled mSA2 in 50% blood serum on thin film, 4 h exposure
Procedure: as §3, §4

[16] = target: T1, streptavidin; assay: fluorescent binding assay, labeled SA in 50% urine on thin film, 4 h exposure
[17] = target: monomeric streptavidin variant mSA2; assay: fluorescent binding assay, labeled mSA2 in PBS on thin film; quadratic curve fit
Procedure: (§5) The binding function of rcSso7d.SA oligomer-PNIPAM thin films was measured using fluorescently-labeled monomeric streptavidin (mSA2) and fluorescently-labeled streptavidin (SA). Details for the expression, purification, and fluorescent labeling of mSA2 are provided below. Samples were prepared by serial dilution of SA or mSA2 in PBS (pH 7.4), human urine (diluted to 50% v/v in PBS, pH 7.4), or blood serum (obtained as the supernatant by centrifuging whole blood at 1500×g for 10 minutes, then diluted to 50% v/v in PBS, pH 7.4). 0.5 μL drops of solutions containing serially diluted fluorescent mSA2 and fluorescent SA samples in PBS (pH 7.4) were gently applied to the surface of each bioconjugate thin film. Films were incubated in a sealed chamber saturated with water vapor at room temperature to prevent to prevent drying of the applied fluorescent samples. After 1 hour, films were thoroughly rinsed with water for 10 seconds (a time determined to be sufficient to remove unbound molecules from the film, see FIG. 33, dried under filtered airflow, and immediately analyzed for fluorescent signal. Fluorescence microscopy images were acquired at 4× magnification using a Cy5 filter set and exposure time of 5000 ms on an Olympus IX-81 inverted fluorescence microscope with an AxioCam HRC CCD camera. Fluorescent intensity was calculated using ImageJ software⁶⁷ by determining the average fluorescent signal in a rectangular area of the fluorescent image free of defects and occupying no less than half of the full sample application area.
Binding assays were performed by adding serially diluted solutions of fluorescently-labeled mSA2 to thin films of each studied conjugate (FIG. 6A). To maintain consistent transport properties between samples, each oligomer was conjugated to the same previously-synthesized 25 kDa PNIPAM sample. Analyte bound to thin films was quantified using fluorescence microscopy, and binding curves were fit to the collected mean fluorescent intensity (MFI) data using the following equation: […]

[18] = target: monomeric streptavidin variant mSA2; assay: fluorescent binding assay, labeled mSA2; signal three standard deviations above blank
Procedure: as §5
Oligomerization of rcSso7d.SA also brings about a decrease in biosensor limit of detection (LOD). […] While all thin films display improvements up to threefold in LOD over the monolayer, the trend in LOD with respect to degree of oligomerization is non-monotonic. The primary factor that is expected to affect LOD in the studied biosensors is number of binding sites, as more binding sites enable a greater number of analyte molecules to be captured and shifts analyte-receptor equilibrium in favor of binding events.

[19] = target: monomeric streptavidin variant mSA2; assay: calculated from [P]T of the mSA2 binding curve fit and film thickness; set-up: Calculated Density (density of binding sites within a cross-sectional area of the film): unit not given here
Procedure: To determine the density of binding proteins within a single plane of each thin film, the concentration of accessible binding sites throughout the entire film—taken directly from the binding assay curve fits (Table 4)—was multiplied by the corresponding film thickness. When accounting for differences in film thickness, the density of oligomerized rcSso7d.SA proteins capable of binding mSA2 is found to increase […] with degree of oligomerization (Table 5). This calculated density decreases, though, between the 1×SP25k and 2×SP25k thin films, indicating a lower density of accessible binding sites in the protein domains of the oligomerized rcSso7d.SA conjugate film. The total number of predicted binding sites within each thin film assuming complete accessibility should be proportional to the […] of rcSso7d. SA in the conjugate with PNIPAM. Reasonable estimates for relative values of the predicted number of sites can thus be obtained by normalizing the weight fraction of rcSso7d. SA in each conjugate by the corresponding weight fraction in 1×SP25k. Comparing these predicted relative number of binding sites to the calculated values (FIG. 6C), all oligomeric rcSso7d.SA conjugates are found to contain fewer proteins capable of binding mSA2 than predicted. It is likely that this effect results from a combination of steric blocking of binding sites by bound mSA2 molecules as well as a lack of the free volume required to incorporate mSA2 molecules into the protein nanodomains at high degrees of binding. Despite the lower than expected binding capacity of the conjugate thin films, these biosensors contain approximately […] the quantity of accessible binding sites compared to rcSso7d.SA monolayers on a volumetric basis (Table 4). Recognizing that each plane (and a monolayer) of rcSso7d.SA proteins is roughly 1-2 nm thick,⁸⁰ the studied thin films can be determined to contain approximately 100 more planes of protein than a monolayer.

[20] = target: T1, streptavidin; assay: fluorescent binding assay: Alexa Fluor 647-labeled streptavidin applied to the thin film; the sheet names the film 4xSP25k, the legend 4xSP30k
Procedure: as §5, with “Films were incubated in a sealed chamber saturated with water vapor at room temperature to prevent to prevent drying of the applied fluorescent samples.” left out

[21] = target: T1, streptavidin; assay: fluorescent binding assay: Alexa Fluor 647-labeled streptavidin applied to the thin film; the sheet names the film 2xSP25k, the legend 2xSP17k
Procedure: as §5, with “Films were incubated in a sealed chamber saturated with water vapor at room temperature to prevent to prevent drying of the applied fluorescent samples.” left out

B1: 3xSP30.3k thin film (3x rcSso7d.SA-PNIPAM conjugate, PNIPAM Mn 30.3 kDa) (designed binder)
chain: MGSSHHHHHHSSGLVPRGSHMCATVKFTYQGEEKQVDISKIKIVARDGQYIDFKYDEGGGAYGYGWVSEKDAPKELLQMLEKQGGGGSGGGGSMATVKFTYQGEEKQVDISKIKIVARDGQYIDFKYDEGGGAYGYGWVSEKDAPKELLQMLEKQGGGGSGGGGSMATVKFTYQGEEKQVDISKIKIVARDGQYIDFKYDEGGGAYGYGWVSEKDAPKELLQMLEKQGG
modifications: maleimide end-functionalized PNIPAM (Mn 30.3 kDa) on the N-terminal Cys; film lightly crosslinked with glutaraldehyde
For B1, the Kd [1] was 20 µM, the “LOD relative to rcSso7d.SA monolayer” value [2] was 2 orders of magnitude lower and the “[P]T (total concentration of binding sites)” value [3] was 0.23 nM. The “[P]T (total concentration of binding sites)” value [4] was 5.7 nM, the Kd [5] was 29 µM and the LOD [6] was 87 nM. The Kd [7] was 30 µM, the “[P]T (total concentration of binding sites)” value [8] was 16 nM and the LOD [9] was 28 nM. For the same binder, the “Limit of Detection” value [10] was 12 nM, the Kd [11] was 40 µM and the “LOD relative to rcSso7d.SA monolayer” value [12] was 2 fold. The “Limit of Detection” value [13] was 1800 nM, the “[P]T (total concentration of binding sites)” value [14] was 0.27 nM and the “Limit of Detection” value [15] was 25 nM. The “Limit of Detection” value [16] was 1100 nM.

B2: 4xSP25k thin film (4x rcSso7d.SA-PNIPAM conjugate, 25 kDa PNIPAM) (designed binder)
chain: MGSSHHHHHHSSGLVPRGSHMCATVKFTYQGEEKQVDISKIKIVARDGQYIDFKYDEGGGAYGYGWVSEKDAPKELLQMLEKQGGGGSGGGGSMATVKFTYQGEEKQVDISKIKIVARDGQYIDFKYDEGGGAYGYGWVSEKDAPKELLQMLEKQGGGGSGGGGSMATVKFTYQGEEKQVDISKIKIVARDGQYIDFKYDEGGGAYGYGWVSEKDAPKELLQMLEKQGGGGSGGGGSMATVKFTYQGEEKQVDISKIKIVARDGQYIDFKYDESGGAYGYGWVSEKDAPKELLQMLEKQ
modifications: maleimide end-functionalized PNIPAM (25 kDa) on the N-terminal Cys; film lightly crosslinked with glutaraldehyde
notes: Four rcSso7d.SA repeats joined by (G4S)2 linkers in one chain
In the case of B2, the “[P]T (total concentration of accessible binding sites)” value [17] is reported as 3.7 µM, the “limit of detection (LOD)” value [18] is reported as 140 nM and the “Calculated Density (density of binding sites within a cross-sectional area of the film)” value (“Calculated Density” for short) [19] is reported as 62. For the same binder, the “Calculated Ratio (film thickness x [P]T relative to the 1xSP25k thin film)” value [19] was 1.31 and the binding result [20] was “binds”.

B3: 1xSP25k thin film (1x rcSso7d.SA-PNIPAM conjugate, 25 kDa PNIPAM) (designed binder)
chain: MGSIHHHHHHSSGLVPRGSHMCATVKFTYQGEEKQVDISKIKIVARDGQYIDFKYDEGGGAYGYGWVSEKDAPKELLQMLEKQ
modifications: maleimide end-functionalized PNIPAM (25 kDa) on the N-terminal Cys; film lightly crosslinked with glutaraldehyde
In the case of B3, the “[P]T (total concentration of accessible binding sites)” value [17] is reported as 3.1 µM, the “limit of detection (LOD)” value [18] is reported as 290 nM and the “Calculated Density” value [19] is reported as 48. For the same binder, the “Calculated Ratio (film thickness x [P]T relative to the 1xSP25k thin film)” value [19] was 1.

B4: 2xSP25k thin film (2x rcSso7d.SA-PNIPAM conjugate, 25 kDa PNIPAM) (designed binder)
chain: MGSSHHHHHHSSGLVPRGSHMCATVKFTYQGEEKQVDISKIKIVARDGQYIDFKYDEGGGAYGYGWVSEKDAPKELLQMLEKQGGGGSGGGGSMATVKFTYQGEEKQVDISKIKIVARDGQYIDFKYDEGGGAYGYGWVSEKDAPKELLQMLEKQGG
modifications: maleimide end-functionalized PNIPAM (25 kDa) on the N-terminal Cys; film lightly crosslinked with glutaraldehyde
notes: Two rcSso7d.SA repeats joined by a (G4S)2 linker in one chain
B4 was tested, and the “[P]T (total concentration of accessible binding sites)” value [17] was 3.3 µM, the “limit of detection (LOD)” value [18] was 200 nM and the binding result [21] was “binds”. The “Calculated Density” value [19] was 43 and the “Calculated Ratio (film thickness x [P]T relative to the 1xSP25k thin film)” value [19] was 0.9.
